Experimental data as given in a protein production outcome set (Wang et al. 2014).

Test: label from the status in PepcDB records
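Also: failed if final PepcDB status was selected cloned or expressed and not failed if soluble or beyond.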

Sequence	protein production
MKRWTTLLIVICMLGITIPAMGAMSISKMRQNTRFLTDRMAYELKLTPRQYNDVYEVNYDFINNVRYLMDDVVRGYDYALERYYDFLDVRNDDLRWILSSAQYRRFMRAEHFYRPIYAHENKWHFRIYLVYNNVNFFYYGKPHHYASYCGGHYRTHFNNVSYYKTHYRDHYRHDVYDGHYRIRHDRMTYDMHRRRDFNIAVRPPQKEHHRPATPPQTRPNRPQIHPDRPSGDHRRPSVPQARPDRPKKDQNNKHDGRPSRRGQNSQVDKDRHENRRITPSGRDVRRGNGKKEKDSDRSGGSNKSNSKERTAVRMRTV	failed
MKSADGLLHVAFTPSKATGKVLASELPEKVGKRSSVLYPASLKAGNDIGVPVQSVDTVLLQQALSAPVLSVASPSAVRAWLHLIQNEEQWSNYVACIGETTASAARRLGLKNVYYPEKPGLEGWVESIMEALGAHADSSNPSSRN	failed
MKSAELKYLDFEDFTKLIALAKEKINPIYSSSFMIYIAAMTGMRFSELLGLTWDNVDFEKGQIYVKRTWDIYKNNFAPTKNDQSVRFLAIDSSTMQVMINYKEQQEKLLKRLEIEPEHPFVFYNIKNGLITNNSLNKQLRNMCKKLGFKKIITCHGLRHTHASTMLYKGINILYVSKRLGHSSLNVTMSVYSHILKLEHHHHHH	failed
MKSFDGHNDLLARLWLSEHPDPVGMFLKGQLPGHLDFARCQQAQFAGGLFAIFVPPFDYVKNNHPYKLRKSAQAGFDTQDIHHIVFTQLDYIKQIASRSDRRIQICLSVEDIQFCLQQDIMAVVIHLEGAEVLDSEFGVLEQLHARGLRSIGPLWNLPNQFGHGLQASFPHSPDTGLGLTDQGKALIQLCSEKRIMIDVSHMNEKAFWDTAKISELPLIATHSNVHQLCPQPRNLTDAQLEAIQASQGCVGVNFDTAFLRPDGQRNAATSLDLILEHIEYLMHKLGEDQVAFGSDFDGGFISDHLKDVTGLIHLQQAFERRGYSQALQEKLCHQNWLSALQRVWHPAC	failed
MKSHAEVVKTRHHEYSLVFPVIALVVLYIWGNSQDFIAILGINAVALAGILFSAFSVVRHADVLAHRLGEPYGSLILSLSVVILEVSLISALMATGDAGPDLMRDTLYSIIVIVTGGLVGFALLLGGRKFATQYVNLSGIKQYLMAIFPLAVIVLVFPSALPDGNFSVTQSLIVAAISAAMYGVFLLIQTRTHQSLFVYEHEDEGDGDDPHHGKPSAHSSLWHTGWLLVHLIAVIAVTKTNSMPLETLLTEMNAPTQFTGFLVALLILSPEGLGAIRAVLKNQVQRAMNLFFGSVLATISLTVPTVTIIAMITGRTLNFGLDMPHIVVMLSVLVLCHITFSTGRTNVLSGSAHLALFAAYLITITL	failed
MKSHQLLKAPFQHGFLFSRPLVMYCFKTCHDSAWKHYIRFLKYRHEKLYEEALSEIDNAIKVCNSIAFRYFLLSEKLTVLGYMGKHEEGIKLYSHLRGRMRNVSPNLRSIFIGNLLNYCSMYLHNAFECLGRIKPEAHHLEKSSYAFILIGKARYMARTGNVKEAIESYEKALKILQEIPHPSGIIACLNDMAWYTKEKDPEKAKDMAEEALYWNGYFFDAPRFYALDTLFEVQRTTSDPAIVETARLIEIASEGLKDSASDLLKKDQRLFLRLNNSLYRNTKSLQRFLRRNTTSIKHLSEITGVARNRLSDILNGKTQKIRGETLRKIAKAFEKSNILSFPPPLLSEWVKLRIEENFSAALREIKTKRLEERQILFLSTYTALIDRKFLSRKERLKKAYTLLEDIESFADFMAKDHRTMEFVVSMVKAHPFVEGRKEAVKRALARMKRKRLERFVLRYIEMKESDRKLLDRFLRNYGRYDGVRFGIRLKGPEVVREFAKKYSLKVQPLFAAFWCEEDGRVRRRLERVLKHMVLN	failed
MKSKWIFIQWFKYNNIRMKDESTNKFGSLNLAVLVLSVYVLGALIVDTTIKLPEETSRLLNYIDLAICIFFFVEFCIRLYHADSKMKFMRWGWIDLVSSIPMINFLRFGRVFRLIRLFRILRAFRTTKEFVTYVFRIKAQGAFTSATILAILLIIFSSIAILQVENASTSNITTAEDAIWWSYVTITTVGYGDKYPVTTEGRIIAMFLMTAGVGLFGTFTAYIASLFVSDNKKEETETKE	failed
MKSLYRSRMANHSKHGRPFTLSLPNRSQCVKIVATFAAVGLLATGGIISRSFYTSSTQAEPTTRVTAYSATDAEASRGNAREALGGDTAYVTVKINGKSRVVPGTNFTNVKSVLEAGNITLEPEDTVSPSLTTKVDEKTVITVSRAGASVEVSDSSIAFNVVKKETSSLPKGQEKVETEGEEGVMESTNLVTRSGDTVISSNMISSYVKKAPVDKVVLVGTGSTSTSSSSSSSSSTASVGTTVPAGEMQQWAHDYLISNGYTEADFTATVYIISHESGWSVSATNPSSGAYGLPQALPGSKMVSAGADWATNYQTQLKWFWGYCASRYGSIQGAYSYWLAHKCY	failed
MKSQNPSKRNLPGVIIAYFLIYVVWGSTYFFIGVALKDFSPFLLGALRFTTAGLILLGICYLRGEQIFKKSLVKRSAVSGIVLLFVDMAVVMLAQRYLTSSLVAIIASSTALWILLLDVPMWRTNFRNPLTIAGGGIGFGGVVMLYAEQLNAEWLHPQSERGILLLVFGCISWALGTLYAKYRSSREEEVNAFAGSAWQMLFASVMFWICAVVNGDVREADLSTVSVTSWFSLLYLISFGSLLAYSAYVWLLKVRPAAEVGTHAYVNPFIAVLLGVSFGNEQVTFVQLSGLLVILLGVMLISRKRNKMKSTAISR	failed
MKSQWECFLQNLGVWEGSFSNFSPEGTLLNDTSSRLCLEGLNNNQTVRLTLSRSGKDDVIREFRSVGGGLLFFENGSFSEGLIQLGPFSEFGGELAFVHENRRLRLVQLFDRNGHLNGLTLIREHLAGTPVAERPLLQINDLLGEWRGQAVTIYRDLRPPDIYSTTLKIQLDDAGRLMQSTSFGERTITSTATIKGSIVLFDQDPEKQVQVLLLPDGASATSPLKVQLRQPLFLEAGWLIQSDLRQRMIRSYNDKGEWVSLTLVTEERV	not failed
MKSRTSELAAGIFVIIFGVALFFLAMKVSGLAGTNLSDPYTMTAQFDNVNGLKPRAKVTMSGVTIGRVDAITLDPVTRLATVTFDLDGKLTTFNAKQLKTVEQNALEELHYSSDYKSAEPAKQKVMEQQLIDNMKSITSIDEDAYIMVSTNGLLGEKYLKIVPGGGLNYLKRGDAITNTQGTMDLEDLISKFITGGAGKSSDNSTGTAAQSSSSEDKEPSFTELEHHHHHH	failed
MKSSTMTSDYYKQTQIDQTLRLREVLKTLPPFAKDYFRAMEPKSSAKTRINYAYDIRVFFHFLLENNPIYKNYTMDQFRVQDLERIEPVDIEEYMEYLKVYKREDNEMITNGERGLKRKMSALRSFYSYYFKHQYIATNPTLLEHHHHHH	failed
MKSSVVSAWDMLWRSHREAKRLLLFAMPVRAGKDAGLKINSEQTMKEEKPPSYKTPQKIGLLLGPALFFAVLLFFFPEGLSYEGRMVLATTLWVAVWWITEAVPIPAASLLPIVLLPLTGALEGAAVTSSYGDPIVFLFLGGFLIALAMERWNLHKRIALNIISVVGTSTSRIVLGFMAATGFLSMWVSNTAAVMMMLPIGTAIIHQVSAVIKSERKDLAAEEAKFSKALIFSIGYAGTIGGLGTLIGTPPNIILAANIKKLYGVEVSFGGWMAFAVPVVVILLVAVWLYLTKVAHPIKMKELPGGKELILEEKRKLGKMSFEETMVLLVFGFAAFMWVTRTFLWDDKIPGIDDTMIAIFAASLLFLIPSLNKGGRVLDWSVSKDLPWGILLLFGGGLALATGFKETGLAEWIGGRLTVLDGFNFVVIVIISTALVLFLTEITSNTATATMILPVLASLALALNVHPYALMVPAAMAANCAFMLPVGTPPNAIIFASGKLKISEMVRTGFVINIFTLILIVGAVFYILPHLWGVDLTVFPDNLKSN	failed
MKSVFHLWRSHMRHLNDMALFVEVARARSFRKAAEALGMPNSTLSRRVSELEKAIGLRLLHRTTRKIELTEAGQLYYERSKRIVDEARLAHEQLGAMLNQPSGVLRVSLPVNLATFYLTPIIGEFARHYPGITFEFDLTPRRVDLVAEPFDVAIRIGKLEDSGLITRLIGRHSRHLYASPGYIEASGEPATPAELAEHECIGMLRSPIWSLHQGINKVDVAVRGRFTLNSVGMIRALAVNHQGIALLPEKIVAEDVAFGRLRRILPEWQGSAVSIFAVTETRLIPAKTQRFIEFLSSRLMEA	failed
MKSVIFTEEKNLQRQNPLQKSEQQRRNFEMPSPPTTTSLSVTQTINGSHSFTIKGYSLAKGIGIGKHIASDTFTVGGYQWAIYFYPDGKNPEDNSAYVSVFIALASDGTDVRALFELSLLDQSGKGKHKVHSHFDRALESGPYTLKYRGSMWGYKRFFRRLMLETSDFLKDDCLKINCTVGVVVSEIDCPRLHSIHVPASDIGSHFGMLLENEDGSDITFNVSGEKFRAHRLVLAARSPVFESEFLDVTGEEDRDIEVTDMEPKVFKALLHYIYKDALIEDAESSSSSGSSVGPSASDTLAAKLLGAADKYKLPRLSLMCESVLCKDISVDSVANILALADRYNASALKSVCLKFAAENLIAVMRSDGFDYLREHCPSLQSELLKTVAGCEEELSGGGGKTRSVWGQFSDGGAETNGRQAQTWGDINGGAERSQSVWVEVVNANGSGRNNNDNNNSDDPMAELED	failed
MKSWPRPCSWACANPETKGRAYRTMSSSPTISPASDTFAAMTDDHRLAEFIREQASATRVVIQARKRLSGGAIQENWLLDLLIEGGPWAGVRRWVLRSDALSALPASLDREQEFAVLQVVYQAGVKVPRPLWLCRDVRVHGRVFFLMEYVPGSAAGRALSTGAGPQGRAQLATQLGANLARLHQVRPPCATLCFLSVPDSSPALATIDAYRRYLDTLADAYPVLEWGLRWCELHAPRSSTLCLLHRDYRTGNYLASEEGLEAVLDWEFTGWGDPCEDLGWFTARCWRFTRPDLEAGGIGQLEDFLRGYHEVSSLCIERSRLHYWQVMATLRWAVIALQQGQRHLSGEEPSLELALTARLLPELELDILHMTGAEAP	failed
MKSWQIELLYDGECPLCLREVNFLRSKDQGRGLVNFVDIAQPDYNPLDHGGVSFEDAMARIHGVKADGSVVKNVAVFREVYEILGIGWLYAPTRWPIIGPLVDRIYDFWADLRLSWTGRSSLAEILAQREKGMCATDGCALPVTSGVEGKP	failed
MKSYTKHTHTNRLASESSPYLLQHAHNPVEWFPWGEEALQKAKAEDKPILVSIGYSACHWCHVMEHECFEKEEVAAVMNDLFINIKIDREERPDLDQIYMDAVSAMGLRGGWPLNVFLTPDAKPFYGGTYFPQDHWLNLLGQISNAYLNHREDILKSAESFTESLNQSDVF	not failed
MKTDWSHYLSVEMESTISNELSILCGAEVAFLGYSCSGKPYTFGSPSFQAVAERFLNREASSSLQRSVMNAHQQAKIQELCKVYNRMVEEAKTEEAKVKKAAALAETMPVDEDAWWKVDPKEVEDHEEAKKIMEKCEGLYEKLCNEAAARIQRGDAENNNK	failed
MKTFEVMIQTDSKGYLDAKFGGNAPKAFLNSNGLPTYSPKISWQKVEGAQSYALELIDHDAQKVCGMPFVHWVVGNIAHNVLEENASMMDKRIVQGVNSLTQGFIRSPLNESEKQRSNLNNSVYIGPMPPNGDHHYLIQVYALDIPKLALKAPFFLGDLHDKMRNHIIAIGRKEFLYKQFVRK	not failed
MKTGDKQFAVIGLGRFGLAVCKELQDSGSQVLAVDINEDRVKEAAGFVSQAIVANCTHEETVAELKLDDYDMVMIAIGADVNASILATLIAKEAGVKSVWVKANDRFQARVLQKIGADHIIMPERDMGIRVARKMLDKRVLEFHPLGSGLAMTEFVVGSRLMGKTLSDLALCKVEGVQVLGFKRGPEIIKAPDMSTTLEIGDLIIVVGPQDKLANKLKSLLEHHHHHH	failed
MKTGKELKPGTVIRLENDPWLVQKAEFTKSGRNSAIMKTKLKNLLTGYKTEIVYSADDKLDDVILDRKEATLSFISGDTYTFMDTTDYTMYELNAEDIESVLPFVEEGMTDVCEAVFFDERLVSVELPTTIVRQVDYTEGSARGDTSGKVMKPAKLKNGTELSVADFIEIGDMIEIDTREGGSYKGRAKLEHHHHHH	failed
